In article PMC2610409:

Target: RAD18-CFP (human) (UniProt Q9NS91)
Test: FRET or BRET

UniProt Q9NS91, sequence (Q9NS91 whole entry): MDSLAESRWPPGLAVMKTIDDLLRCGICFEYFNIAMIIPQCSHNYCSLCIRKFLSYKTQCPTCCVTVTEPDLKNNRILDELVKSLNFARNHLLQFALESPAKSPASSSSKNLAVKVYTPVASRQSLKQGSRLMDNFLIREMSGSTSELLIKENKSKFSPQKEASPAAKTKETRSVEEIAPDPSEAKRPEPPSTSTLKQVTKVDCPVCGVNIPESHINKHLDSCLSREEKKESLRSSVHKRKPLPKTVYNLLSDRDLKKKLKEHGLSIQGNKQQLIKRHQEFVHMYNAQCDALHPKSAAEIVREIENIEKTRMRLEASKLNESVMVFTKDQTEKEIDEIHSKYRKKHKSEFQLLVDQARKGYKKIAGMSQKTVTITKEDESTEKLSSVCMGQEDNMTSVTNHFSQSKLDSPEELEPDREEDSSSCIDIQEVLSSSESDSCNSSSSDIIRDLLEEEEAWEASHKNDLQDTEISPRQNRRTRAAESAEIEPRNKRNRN

RAD6A-YFP (from UniProt P49459 1-152) (natural protein)
FRET efficiency: 72%
